Measured values as given in US20120128704A1 (published 2012).

T1: survivin peptide on HLA-A*02:01 (human)
T1 peptide: LMLGEFLKL

B1: SW-Surv-66 (TCR, V domains shown)
Valpha: GENVEQHPSTLSVQEGDSAVIKCTYSDSASNYFPWYKQELGKRPQLIIDIRSNVGEKKDQRIAVTLNKTAKHFSLHITETQPEDSAVYFCAARAGNMLTFGGGTRLMVKP
Vbeta: SQTIHQWPATLVQPVGSPLSLECTVEGTSNPNLYWYRQAAGRGLQLLFYSVGIGQISSEVPQNLSASRPQDRQFILSSKKLLLSDSGFYLCAWGTGLALYEQYFGPGTRLTVT
B2: SW-Surv-72 (TCR, V domains shown)
Valpha: AQKITQTQPGMFVQEKEAVTLDCTYDTSDQSYGLFWYKQPSSGEMIFLIYQGSYDEQNATEGRYSLNFQKARKSANLVISASQLGDSAMYFCAMREGGGYNKLIFGAGTRLAVHP
Vbeta: SQTIHQWPATLVQPVGSPLSLECTVEGTSNPNLYWYRQAAGRGLQLLFYSVGIGQISSEVPQNLSASRPQDRQFILSSKKLLLSDSGFYLCAGQDLNTEAFFGQGTRLTVV
B3: SW-Surv-22 (TCR, V domains shown)
Valpha: EDQVTQSPEALRLQEGESSSLNCSYTVSGLRGLFWYRQDPGKGPEFLFTLYSAGEEKEKERLKATLTKKESFLHITAPKPEDSATYLCAVQAYSNSGYALNFGKGTSLLVTP
Vbeta: SAVISQKPSRDICQRGTSLTIQCQVDSQVTMMFWYRQQPGQSLTLIATANQGSEATYESGFVIDKFPISRPNLTFSTLTVSNMSPEDSSIYLCSVEDSYGYTFGSGTRLTVV

Biological target: T1, survivin peptide on HLA-A*02:01
Test: multimer staining
Protocol: Up to 1×10⁶ of cells were incubated in 50 μl volume for 25 min with 4 μg PE-labeled multimer on ice in the dark. For sorting, up to 5×10⁶ cells were incubated with 12 μg multimer in 100 μl PBS+0.5% human serum. CD8-APC antibody was then added at 1/50 for an additional 25 min. After staining cells were washed twice and either fixed in FACS buffer with 1% paraformaldehyde and analysed by flow cytometry using a FACSCalibur (BD Biosciences) or diluted in PBS+0.5% human serum with PI for sorting. 20-50×10⁶ total cells per priming culture were stained for sorting. PI-negative cells were gated and CD8⁺multimer⁺ T cells were sorted on a FACSAria cell sorter (BD Biosciences) with a 70 μm nozzle, at a rate of 15,000 events/s. […] Pentamer staining was performed according to the manufacturer's instructions.

Does B1 bind?
Result: recognises

Does B2 bind?
Result: recognises

Does B3 bind?
Result: recognises
